This is an account of results in US20080146512A1 (published 2008).

Assay [1] concerns the target opioid growth factor receptor (OGFr) (human) (UniProt Q9NZT2). In words: cell-based or functional assay.
Assay [2] addresses T1, Cdk4 (human, UniProt P11802 2-303).
T1 construct: Endogenous protein immunoprecipitated from SCC-1 cell homogenates with a commercial polyclonal Cdk4 antibody; also called Cdk4 kinase
In words: Cdk4 immunoprecipitation from SCC-1 cell homogenates, Western blot with p16 antibodies. An excerpt:
Cell cycle progression depends on both positive and negative regulators.
(Immunoblotting shows a protein as a band on a membrane.)

opioid growth factor receptor (OGFr) (human), sequence (Q9NZT2 whole entry): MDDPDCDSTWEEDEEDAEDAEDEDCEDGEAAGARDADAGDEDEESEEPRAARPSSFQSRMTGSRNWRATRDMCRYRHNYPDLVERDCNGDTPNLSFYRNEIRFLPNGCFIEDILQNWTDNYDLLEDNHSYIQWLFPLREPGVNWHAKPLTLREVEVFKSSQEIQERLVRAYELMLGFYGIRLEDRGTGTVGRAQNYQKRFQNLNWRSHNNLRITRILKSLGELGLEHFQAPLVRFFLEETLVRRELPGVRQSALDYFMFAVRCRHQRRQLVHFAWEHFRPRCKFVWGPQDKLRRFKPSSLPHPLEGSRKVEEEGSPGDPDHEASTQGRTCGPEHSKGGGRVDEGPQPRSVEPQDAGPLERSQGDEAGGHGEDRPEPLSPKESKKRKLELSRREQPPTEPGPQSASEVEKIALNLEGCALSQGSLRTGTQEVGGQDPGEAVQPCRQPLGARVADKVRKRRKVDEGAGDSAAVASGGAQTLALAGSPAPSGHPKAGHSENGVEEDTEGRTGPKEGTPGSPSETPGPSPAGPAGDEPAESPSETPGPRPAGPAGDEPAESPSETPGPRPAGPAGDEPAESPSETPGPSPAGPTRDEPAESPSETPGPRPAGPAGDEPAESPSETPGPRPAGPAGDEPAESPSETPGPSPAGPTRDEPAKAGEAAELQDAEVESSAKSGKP
T1 sequence (P11802 2-303 limits assumed): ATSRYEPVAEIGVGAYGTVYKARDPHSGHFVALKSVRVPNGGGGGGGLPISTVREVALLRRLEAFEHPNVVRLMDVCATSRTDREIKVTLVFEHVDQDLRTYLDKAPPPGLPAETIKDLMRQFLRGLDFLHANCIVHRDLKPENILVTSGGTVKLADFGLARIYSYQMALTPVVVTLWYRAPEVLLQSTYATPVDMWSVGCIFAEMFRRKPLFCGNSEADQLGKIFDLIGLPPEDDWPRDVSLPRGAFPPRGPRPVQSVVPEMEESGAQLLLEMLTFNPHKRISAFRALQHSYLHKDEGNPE

Take “opioid growth factor (OGF), [Met5]-enkephalin (from UniProt P01210 100-104) (peptide)”: in assay [1], the growth of control siRNA-treated SCC-1 cells (cell number at 96 h) worked out at 46% and the growth of wt SCC-1 cells (cell number at 96 h) stood at 29%.

B1: p16 (INK4a) (other, human, UniProt P42771 1-156, looked up)
chain: MEPAAGSSMEPSADWLATAAARGRVEEVRALLEAGALPNAPNSYGRRPIQVMMMGSARVAELLLLHGAEPNCADPATLTRPVHDAAREGFLDTLVVLHRAGARLDVRDAWGRLPVDLAEELGHRDVARYLRAAAGGTRGSNHARIDAAEGPSDIPD
notes: Endogenous protein co-immunoprecipitated with Cdk4 from SCC-1 cell homogenates and detected with a commercial p16 antibody
For the molecule B1, the binding result in assay [2] was “binds”.
